Laboratory results published in paper PMC2691842 (Nucleic Acids Research, 2009).

Biological target: the molecule itself
Test: AUC

B1: C.Esp1396I controller (C) protein (natural protein, UniProt Q8GGH0 1-79, looked up)
chain: MESFLLSKVSFVIKKIRLEKGMTQEDLAYKSNLDRTYISGIERNSRNLTIKSLELIMKGLEVSDVVFFEMLIKEILKHD
- Kd: ~600 nM
- stoichiometry N: 2
